Residue numbers refer to the chain shown, from its start.

Assay [1] deals with T1, STAT1 in IL6-treated murine M1 cells (murine, UniProt P42225 2-749, the filing says IL6 stimulation can induce tyrosine phosphorylation of STAT1).
T1 sequence (looked up): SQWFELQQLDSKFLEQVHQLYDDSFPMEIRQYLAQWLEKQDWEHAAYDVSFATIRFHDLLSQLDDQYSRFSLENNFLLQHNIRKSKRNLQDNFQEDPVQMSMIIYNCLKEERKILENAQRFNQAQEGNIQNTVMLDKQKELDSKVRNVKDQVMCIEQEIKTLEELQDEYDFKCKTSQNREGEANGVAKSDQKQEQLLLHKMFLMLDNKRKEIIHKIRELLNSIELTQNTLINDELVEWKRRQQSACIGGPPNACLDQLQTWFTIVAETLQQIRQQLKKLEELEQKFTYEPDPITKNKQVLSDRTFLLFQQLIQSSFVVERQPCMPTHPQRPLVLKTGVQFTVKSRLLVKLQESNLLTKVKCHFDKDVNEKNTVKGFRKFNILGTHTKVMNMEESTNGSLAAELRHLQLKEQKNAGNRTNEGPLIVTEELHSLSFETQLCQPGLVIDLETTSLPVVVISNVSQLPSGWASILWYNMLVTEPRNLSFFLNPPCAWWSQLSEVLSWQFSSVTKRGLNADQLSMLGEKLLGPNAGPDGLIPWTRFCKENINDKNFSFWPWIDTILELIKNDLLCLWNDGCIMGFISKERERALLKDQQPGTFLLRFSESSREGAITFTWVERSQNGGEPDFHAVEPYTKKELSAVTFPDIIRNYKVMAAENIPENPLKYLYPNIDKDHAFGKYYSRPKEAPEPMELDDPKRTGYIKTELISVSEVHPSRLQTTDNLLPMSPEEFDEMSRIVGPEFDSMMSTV
Briefly: co-immunoprecipitation with anti-PIAS3c from M1 cells, blot reprobed with antibody to STAT1. On the procedure:
To identify which STAT protein interacts with PIAS3, protein extracts were prepared from murine myeloblast M1 cells, which were untreated or treated with IL6. Proteins immunoprecipitated with anti-PIAS3c were analyzed by protein immunoblot with anti-STAT3. STAT3 was present in a PIAS3 immunoprecipitate from IL6 treated M1 cells but not in an immunoprecipitate from untreated M1 cells (FIG. 2A). […] IL6 stimulation can induce tyrosine phosphorylation of STAT1 as well as STAT3 (Sadowski et al. (1993)). The protein blot was therefore washed and reprobed with antibody to STAT1. STAT1 was not present in PIAS3 immunoprecipitates (FIG. 2A). Furthermore, PIAS3 was not found to be associated with STAT1 in a number of cell lines treated with interferon-γ.
Protein extracts from M1 cells, untreated (−) or treated with IL6 for 10 min (+), were subjected to immunoprecipitation (IP) with anti-PIAS3c. The blot was probed with anti-STAT. The same blot was then reprobed with anti-PIAS3c. The filter was washed and reprobed with anti-STAT1.

The target in assay [2] is T2, STAT1 in interferon-treated human cells (human, UniProt P42224 2-750, limits assumed, phosphotyrosine at Tyr-701 (IFN-induced)).
T2 construct: also called p-STAT1; wild type STAT1
T2 sequence (looked up): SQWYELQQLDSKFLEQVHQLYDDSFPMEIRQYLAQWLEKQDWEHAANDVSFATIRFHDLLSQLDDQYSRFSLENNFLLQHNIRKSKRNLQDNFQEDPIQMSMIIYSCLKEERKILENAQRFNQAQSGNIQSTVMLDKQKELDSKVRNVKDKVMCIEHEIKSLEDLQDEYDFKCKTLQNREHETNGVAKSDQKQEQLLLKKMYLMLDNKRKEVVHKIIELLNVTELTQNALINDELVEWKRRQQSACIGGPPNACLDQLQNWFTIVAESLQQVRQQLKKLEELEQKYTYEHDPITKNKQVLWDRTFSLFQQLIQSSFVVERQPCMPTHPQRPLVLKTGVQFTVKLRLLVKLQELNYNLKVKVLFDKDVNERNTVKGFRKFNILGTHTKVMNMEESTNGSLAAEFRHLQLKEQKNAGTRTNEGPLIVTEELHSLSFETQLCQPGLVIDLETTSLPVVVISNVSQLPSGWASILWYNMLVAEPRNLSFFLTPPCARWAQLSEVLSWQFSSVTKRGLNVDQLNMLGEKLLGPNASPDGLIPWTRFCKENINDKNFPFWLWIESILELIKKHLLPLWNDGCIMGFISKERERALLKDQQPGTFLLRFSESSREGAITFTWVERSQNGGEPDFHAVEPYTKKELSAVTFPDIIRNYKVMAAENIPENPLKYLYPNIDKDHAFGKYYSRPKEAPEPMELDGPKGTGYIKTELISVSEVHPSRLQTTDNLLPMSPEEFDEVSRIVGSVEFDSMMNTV
In words: co-immunoprecipitation with anti-PIAS3c from HepG2 cells untreated or treated with IL6 or IFN-γ, anti-STAT1 blot.

Assay [3] addresses STAT3 in cytokine-treated human cells (CNTF, OM or IL6) (human, UniProt P40763 2-770, limits assumed, tyrosine phosphorylated after cytokine treatment (site not given)). In words: co-immunoprecipitation with anti-PIAS1n from HepG2 cells untreated or treated with IL6 or IFN-γ, anti-STAT3 blot.
Assay [4] addresses STAT2 in IFN-treated human Daudi B cells (human, UniProt P52630 1-851). In words: co-immunoprecipitation with anti-PIAS1n from IFN-treated Daudi B cells, immunoblot with anti-STAT1 and anti-STAT2. Here is the method: Daudi cells were treated with […] for the times indicated. Whole cell extracts were prepared and one half of these extracts were used for immunoprecipitation with anti-PIAS1n (left panel). Immunoprecipitation was carried out as described in (A) and the filter was probed with anti-STAT1 and anti-STAT2. The same filter was washed and reprobed with anti-PIAS1n (lower panel). The other half of protein extracts were subjected to immunoprecipitation with anti-STAT1 (right panel). The filter was probed with a mixture of anti-STAT1 and anti-STAT2 antibodies. p-STAT1: phosphorylated STAT1.
Human Daudi B cells were untreated or treated with IFN-α for various time periods. Protein extracts were prepared and subjected to immunoprecipitation with anti-PIAS1n followed by immunoblot with both anti-STAT1 and STAT2 antibodies. While STAT1 was associated with PIAS1 in IFN-treated cells, STAT2 was absent in PIAS1 immunoprecipitates (FIG. 8B).
A general note: Immunoblotting shows a protein as a band on a membrane.

Chain of STAT3 in cytokine-treated human cells (CNTF, OM or IL6) (P40763 2-770 limits assumed): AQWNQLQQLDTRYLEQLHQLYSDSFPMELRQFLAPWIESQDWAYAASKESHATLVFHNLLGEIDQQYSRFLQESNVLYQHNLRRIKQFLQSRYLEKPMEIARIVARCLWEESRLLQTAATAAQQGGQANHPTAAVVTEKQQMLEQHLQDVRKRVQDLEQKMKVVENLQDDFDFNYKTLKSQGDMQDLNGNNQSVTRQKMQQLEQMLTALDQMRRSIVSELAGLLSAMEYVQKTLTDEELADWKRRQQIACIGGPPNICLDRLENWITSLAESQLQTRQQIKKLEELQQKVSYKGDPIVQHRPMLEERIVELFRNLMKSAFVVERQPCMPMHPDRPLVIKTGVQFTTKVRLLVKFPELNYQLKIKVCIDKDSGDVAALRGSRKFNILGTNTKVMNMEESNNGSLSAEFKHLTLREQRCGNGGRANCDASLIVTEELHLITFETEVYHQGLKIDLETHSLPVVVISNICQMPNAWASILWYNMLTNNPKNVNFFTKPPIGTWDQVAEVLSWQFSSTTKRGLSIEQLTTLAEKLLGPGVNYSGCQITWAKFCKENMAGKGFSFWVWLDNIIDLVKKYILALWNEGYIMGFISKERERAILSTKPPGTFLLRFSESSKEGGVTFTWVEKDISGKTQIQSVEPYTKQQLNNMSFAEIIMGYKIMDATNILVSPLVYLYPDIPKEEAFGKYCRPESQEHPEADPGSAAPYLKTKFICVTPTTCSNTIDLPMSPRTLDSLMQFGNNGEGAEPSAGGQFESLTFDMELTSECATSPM
Chain of STAT2 in IFN-treated human Daudi B cells (P52630 whole entry): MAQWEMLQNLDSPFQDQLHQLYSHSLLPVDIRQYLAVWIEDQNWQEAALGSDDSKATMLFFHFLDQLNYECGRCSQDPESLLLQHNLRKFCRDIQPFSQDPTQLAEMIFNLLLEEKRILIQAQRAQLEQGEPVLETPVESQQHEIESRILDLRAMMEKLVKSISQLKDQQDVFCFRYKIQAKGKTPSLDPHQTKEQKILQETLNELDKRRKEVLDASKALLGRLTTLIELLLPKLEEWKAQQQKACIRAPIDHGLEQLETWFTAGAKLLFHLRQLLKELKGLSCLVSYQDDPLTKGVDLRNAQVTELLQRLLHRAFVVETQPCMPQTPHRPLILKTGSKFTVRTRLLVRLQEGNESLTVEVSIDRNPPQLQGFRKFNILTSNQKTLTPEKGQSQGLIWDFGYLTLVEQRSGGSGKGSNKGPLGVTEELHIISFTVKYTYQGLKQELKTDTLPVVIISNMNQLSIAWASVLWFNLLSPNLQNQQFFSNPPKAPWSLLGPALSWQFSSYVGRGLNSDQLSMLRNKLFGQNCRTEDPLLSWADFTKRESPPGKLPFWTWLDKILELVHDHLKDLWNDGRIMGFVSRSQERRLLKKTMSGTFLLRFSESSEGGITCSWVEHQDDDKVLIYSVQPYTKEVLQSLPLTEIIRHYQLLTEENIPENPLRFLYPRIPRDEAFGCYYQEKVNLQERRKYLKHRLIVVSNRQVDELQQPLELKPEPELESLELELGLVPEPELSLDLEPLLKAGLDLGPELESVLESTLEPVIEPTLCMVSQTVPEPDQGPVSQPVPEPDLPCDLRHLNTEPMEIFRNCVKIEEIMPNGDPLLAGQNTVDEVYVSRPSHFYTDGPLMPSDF

B1: murine PIAS3 (other)
chain: MVMSFRVSELQVLLGFAGRNKSGRKHELLAKALHLLKSSCAPSVQMKIKELYRRRFPRKTLGPSDLSLLSLPPGTSPPVHPDVTMKPLPFYEVYGELIRPTTLASTSSQRFEEAHFTFALTPQQLQQILTSREVLPGAKCDYTIQVQLRFCLCETSCPQEDYFPPNLFVKVNGKLCPLPGYLPPTKNGAEPRGPAVRSTSHPWLDSQPLSPTPSLLIGHLSLDGITPCPCLVRQLTAGTLLQKLRAKGIRNPDHSRALIKEKLTADPDSEVATTSLPGVTHVPARKMRLTVPCRALTCAHLQSFDAALYLQMNEKKPTWTCPVCDKKAPYESLIIDGLFMEILNSCSDDDEIQFMEDGSWCPMKPKKEASEVCPPPGYGLDGLQYSAVQEGIQPESKKRVEVIDLTIESSSDEEDLPPTKKHCSPTSAAIPALPGSKGALTSGHQPSSVLRSPAMGTLGSDFLSSLPVHEYPPAFPLGADIQGLDLFSFLQTESQQYGPSVIISLDEQDTLGHFFQYRGTPSHFLGPLAPTLGSCHGSSTPAPPPGRVSSIVAPGSSLREGHGGPLPSGPSLTGCRSDVISLD
notes: Endogenous protein immunoprecipitated with anti-PIAS3c from M1 cell extracts; also called mPIAS3; mouse PIAS3
Turning to B1, the binding result in assay [1] is recorded as “no binding”.

B2: human PIAS3 (other)
chain: B1 chain with H219M, D349C, H422Q, P425V, P434L, A439V
notes: Endogenous protein immunoprecipitated with anti-PIAS3c from human HepG2 cells; also called hPIAS3
B2: the binding result in assay [2] is “no binding”.

B3: human PIAS1 (other)
chain: ADSAELKQMVMSLRVSELQVLLGYAGRNKHGRKHELLTKALHLLKAGCSPAVQMKIKELYRRRFPQKIMTPADLSIPNVHSSPMPATLSPSTIPQLTYDGHPASSPLLPVSLLGPKHKLELPHLTSALHPVHPDIKLQKLPFYDLLDELIKPTSLASDNSQRFRETCFAFALTPQQVQQISSSMDISGTKCDFTVQVQLRFCLSETSCPQEDHFPPNLCVKVNTKPCSLPGYLPPTKNGVEPKRPSRPINITSLVRLSTTVPNTMCSWTAEIGRNYSMAVYLVKQLSSTVLLQRLRAKGIRNPDHSRALIKEKLTADPDSEIATTSLRVSLLCPLGKMRLTIPCRALTCSHLQCFDATLYIQMNEKKPTWVCPVCDKKAPYEHLIIDGLFMEILKYCTDCDEIQFKEDGTWAPMRSKKEVQEVSASYNGVDGCLSSTLEHQVASHHQSSNKNKKVEVIDLTIDSSSDEEEEEPSAKRTCPSLSPTSPLNNKGILSLPHQASPVSRTPSLPAVDTSYINTSLIQDYRHPFHMTPMPYDLQGLDFFPFLSGDNQHYNTSLLAAAAAAVSDDQDLLHSSRFFPYTSSQMFLDQLSAGGSTSLPTTNGSSSGSNSSLVSSNSLRESHSHTVTNRSSTDTASIFGIIPDIISLD
notes: also called hPIAS1
As for B3, the binding result in assay [3] and in assay [4] was “no binding” throughout.
